These results are taken from patent US20220017622A1 (Pfizer, published 2022).

For experiment [1], the target named is T1, human B7-H4 extracellular domain (human, UniProt Q7Z7D3 29-258).
T1 construct: For SPR it says only human B7-H4 ECD; also called Hu B7-H4 ECD; huB7-H4 ECD
T1 sequence: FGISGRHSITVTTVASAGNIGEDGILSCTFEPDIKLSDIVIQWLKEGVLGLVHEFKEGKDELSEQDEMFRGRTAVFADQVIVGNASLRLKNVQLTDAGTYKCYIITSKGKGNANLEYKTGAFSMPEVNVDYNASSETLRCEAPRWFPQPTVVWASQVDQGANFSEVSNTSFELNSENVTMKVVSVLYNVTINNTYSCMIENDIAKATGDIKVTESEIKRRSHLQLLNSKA
Kind of experiment: competition ELISA on coated huB7-H4 ECD; competitor biotinylated 0052 (by series, not given).

Experiment [2] has as its target T2, human B7-H4 extracellular domain (human, UniProt Q7Z7D3 29-258).
T2 construct: Soluble ECD used as SPR analyte; also called huB7-H4 ECD; huB7-H4
T2 sequence: T1 sequence
In words: SPR 37 C; IgG1 on anti-hFc chip, ECD analyte.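 Note: antibodies captured, then B7-H4 ECD injected at five 3-fold dilutions from 300 nM, 65 s association and 600 s dissociation, fitted to a 1:1 Langmuir model.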

Experiment [3] deals with T1, human B7-H4 extracellular domain. Kind of experiment: SPR Biacore 8K 25 C; mAb captured on anti-human Fc, huB7-H4 ECD analyte, 1:1 fit.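 Note: antibodies tested as IgG1, running buffer HBS-EP+ at pH 7.4, rate constants and affinity from a 1:1 Langmuir model fit.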 In general terms: SPR reads the build-up and loss of mass on a sensor chip optically.

Residue numbers refer to the chain shown, from its start. “And” between values parts separate entries of the source, which are not always exact repeats. Equal values may be shown once.
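Throughout, for IC50: tested antibody premixed 1:1 with biotinylated parental antibody, 2 h at room temperature on coated ECD, bound biotin detected via streptavidin-HRP, absorbance read at 450 nm.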

B1: B7-H4 antibody 1080 (antibody, human IgG1, kappa, V domains shown)
VH: EVQLVESGGGLVQPGGSLRLSCAVSGGSFSGYYWNWIRQPPGKGLEWIGEINHSGSATYNPSLKSRVTISVDTAKNSLYLQMNSLRAEDTAVYYCARGLYNWNVDHWGQGTLVTVSS
VL: DIQMTQSPSSLSASVGDRVTITCRASQGIRNDLGWYQQKPGKAPKRLIYAASSLQSGVPSRFSGSGSGTDFTLTISSLQPEDFATYYCLQHNAYPRTFGGGTKVEIKR
For orientation: IC50 means the midpoint of a concentration-inhibition curve. Lower therefore signals greater potency. On to B1, for which, in experiment [1], the concentration for half-maximal inhibition (IC50) turned out to be 1.4 nM.

B2: B7-H4 antibody 0385 (antibody, human IgG1, kappa, V domains shown)
VH: QVQLQQWGAGLLKPSETLPLTCAVYGGSFSGYYWNWIRQPPGKGLEWIGEINHSGSATYNPSLKSRVTISVDTSKNHFSLKLSSVTAADTAVYFCARGLYNWNVDHWGQGTLVTVSS
VL: B1 VL with N92Q, A93S
The molecule B2 showed an IC50 in experiment [1] of 7.87 nM.

B3: B7-H4 antibody 1080 (antibody, human IgG1, kappa, V domains shown)
VH: B1 VH
VL: B1 VL
notes: IgG1 mAb format
The Kd is the concentration at which binding is half-saturated. A low value points to higher affinity. One may read the koff as a measure of how fast the partners let go of each other. Low values mean slow dissociation, high ones fast dissociation. The kon is the rate constant with which the complex forms. Take B3: in experiment [2], binding was put at a Kd of 13.8 nM, the koff stood at 0.0054 s⁻¹ and the association rate constant (kon) worked out at 392000 M⁻¹ s⁻¹.

B4: B7-H4 antibody 0279 (antibody, human IgG1, kappa, V domains shown)
VH: B1 VH with I37V, P40A, V67F, L78F
VL: B1 VL with D70E, A93S
As to B4, the IC50 in experiment [1] is 5.94 nM and 14.9 nM.

B5: B7-H4 antibody 0283 (antibody, human IgG1, kappa, V domains shown)
VH: B2 VH
VL: B1 VL with A93S
Regarding B5, the IC50 in experiment [1] is 7.2 nM and 12.9 nM.

B6: B7-H4 antibody 0270 (antibody, human IgG1, kappa, V domains shown)
VH: B2 VH with P19S, A57T, T58K, V71G, H77Q, S83N, F94Y, A96V, H106S
VL: B1 VL with A50V, A93S, R96Y, G100Q, V104L
As to B6, in experiment [1], the IC50 was 9.07 nM.

B7: B7-H4 antibody 0934 (antibody, human IgG1, kappa, V domains shown)
VH: B1 VH with I37V, P40A
VL: B1 VL with N92S, A93S
As for B7, the half-inhibitory concentration (IC50) in experiment [1] was 3.6 nM.

B8: B7-H4 antibody 0368 (antibody, human IgG1, kappa, V domains shown)
VH: B1 VH with V24A, I37V, P40A, I48V, G49A, V67F, V71R
VL: B1 VL with D70E, A93S
On to B8, for which, in experiment [1], the 50% inhibitory concentration (IC50) is 8.49 nM and 8.3 nM.

B9: B7-H4 antibody 0350 (antibody, human IgG1, kappa, V domains shown)
VH: B1 VH with N35S, I37V, V67F, L78F
VL: B1 VL with D70E, A93S
Turning to B9, the IC50 in experiment [1] was 17.6 nM.

B10: B7-H4 antibody 0934 (antibody, human IgG1, kappa, V domains shown)
VH: B1 VH with I37V, P40A
VL: B1 VL with N92S, A93S
notes: IgG1 mAb format
With B10, in experiment [2], binding was characterised by a dissociation constant (Kd) of 11.8 nM, the koff amounted to 0.00539 s⁻¹ and the on-rate constant (kon) came out at 454000 M⁻¹ s⁻¹.

B11: B7-H4 antibody 0386 (antibody, human IgG1, kappa, V domains shown)
VH: B2 VH
VL: B1 VL with N92A, A93S
The molecule B11 returned a half-inhibitory concentration (IC50) in experiment [1] of 9.2 nM.

B12: B7-H4 antibody 0384 (antibody, human IgG1, kappa, V domains shown)
VH: B2 VH
VL: B1 VL with N92S, A93S
As for B12, in experiment [1], the IC50 came to 6.91 nM.

B13: B7-H4 antibody 1083 (antibody, human IgG1, kappa, V domains shown)
VH: B1 VH with V24A, L78F
VL: B1 VL
With B13, in experiment [1], the 50% inhibitory concentration (IC50) stood at 2.1 nM.

B14: B7-H4 antibody 0911 (antibody, human IgG1, kappa, V domains shown)
VH: B1 VH
VL: B1 VL with N92S, A93S
In turn, B14 returned an IC50 in experiment [1] of 2.5 nM.

B15: B7-H4 antibody 0540 (antibody, human IgG1, kappa, V domains shown)
VH: B1 VH with N52D, S54Q, A57T, T58K, G98E
VL: B1 VL
In experiment [1], B15 showed an IC50 of 30.1 nM.

B16: B7-H4 antibody 0362 (antibody, human IgG1, kappa, V domains shown)
VH: B1 VH with I37V, P40A, N52D, S54Q, A57T, T58K, V67F, L78F
VL: B1 VL with D70E, A93S
Turning to B16, the half-maximal inhibitory concentration (IC50) in experiment [1] is 13.5 nM and 17.1 nM.

B17: B7-H4 antibody 0267 (antibody, human IgG1, kappa, V domains shown)
VH: EVQLVESGGGLVQPGGSLRLSCAASGGSFSGYYWNWVRQAPGKGLEWIGEINHSGSTKYNPSLKSRFTISGDNAKNSFYLQMNSLRAEDTAVYYCVRGLYNWNVDSWGQGTLVTVSS
VL: B1 VL with A50V, D70E, A93S, R96Y, G100Q, V104L
Regarding B17, the half-inhibitory concentration (IC50) in experiment [1] came to 9.42 nM.

B18: B7-H4 antibody 0538 (antibody, human IgG1, kappa, V domains shown)
VH: B1 VH with V24A, N52D, S54Q, A57T, T58K
VL: B1 VL
B18 displayed an IC50 in experiment [1] of 21.9 nM.

B19: B7-H4 antibody 0352 (antibody, human IgG1, kappa, V domains shown)
VH: B1 VH with V67F, L78F
VL: B1 VL with D70E, A93S
For B19, in experiment [1], the IC50 was 15.8 nM and 12.9 nM.

B20: B7-H4 antibody 0388 (antibody, human IgG1, kappa, V domains shown)
VH: B2 VH
VL: B1 VL with R96Y, G100Q, V104L
In experiment [1], B20 gave a half-maximal inhibitory concentration (IC50) of 11.3 nM.

B21: B7-H4 antibody 0380 (antibody, human IgG1, kappa, V domains shown)
VH: B1 VH with I37V, P40A, V67F, L78F, G98E
VL: B1 VL with D70E, A93S
B21: the concentration for half-maximal inhibition (IC50) in experiment [1] is 13.6 nM and 17.8 nM.

B22: B7-H4 antibody 1082 (antibody, human IgG1, kappa, V domains shown)
VH: B1 VH with V24A, I37V, P40A
VL: B1 VL
For B22, in experiment [1], the IC50 was found to be 2 nM.

B23: B7-H4 antibody 0390 (antibody, human IgG1, kappa, V domains shown)
VH: B2 VH
VL: B1 VL with N92Q, A93S, R96Y, G100Q, V104L
B23: in experiment [1], the IC50 turned out to be 15.2 nM.

B24: B7-H4 antibody 0391 (antibody, human IgG1, kappa, V domains shown)
VH: B2 VH
VL: B1 VL with N92A, A93S, R96Y, G100Q, V104L
In experiment [1], B24 yielded a half-inhibitory concentration (IC50) of 13.6 nM.

B25: B7-H4 antibody 0383 (antibody, human IgG1, kappa, V domains shown)
VH: B2 VH
VL: B1 VL
The molecule B25 had a half-inhibitory concentration (IC50) in experiment [1] of 7.17 nM.

B26: B7-H4 antibody 1083 (antibody, human IgG1, kappa, V domains shown)
VH: B1 VH with V24A, L78F
VL: B1 VL
notes: IgG1 mAb format
In the case of B26, in experiment [2], the dissociation constant (Kd) came out at 22.6 nM, the koff was 0.0086 s⁻¹ and the kon came to 381000 M⁻¹ s⁻¹.

B27: B7-H4 antibody 0376 (antibody, human IgG1, kappa, V domains shown)
VH: B1 VH with I37V, P40A, N60V, P61D, L63V, S65G, V67F, V71R, L78F
VL: B1 VL with D70E, A93S
As for B27, in experiment [1], the IC50 is 12.4 nM.

B28: B7-H4 antibody 1081 (antibody, human IgG1, kappa, V domains shown)
VH: B1 VH with N52D, S54Q, A57T, T58K, L78F
VL: B1 VL
B28 gave an IC50 in experiment [1] of 3.5 nM.

B29: B7-H4 antibody 0544 (antibody, human IgG1, kappa, V domains shown)
VH: B1 VH with V24A, N52D, S54Q, A57T, T58K
VL: B1 VL with N92S, A93S
In experiment [1], B29 displayed an IC50 of 35.5 nM.

B30: B7-H4 antibody 0542 (antibody, human IgG1, kappa, V domains shown)
VH: B1 VH with V24A, N52D, S54Q, A57T, T58K, G98E
VL: B1 VL with N92S, A93S
In experiment [1], B30 had an IC50 of 33.8 nM.

B31: B7-H4 antibody 0364 (antibody, human IgG1, kappa, V domains shown)
VH: B1 VH with I37V, P40A, L78F
VL: B1 VL with D70E, A93S
Take B31: the IC50 in experiment [1] is 9.13 nM and 10.8 nM.

B32: B7-H4 antibody 1081 (antibody, human IgG1, kappa, V domains shown)
VH: B1 VH with N52D, S54Q, A57T, T58K, L78F
VL: B1 VL
notes: IgG1 mAb format
Turning to B32, in experiment [2], the dissociation constant Kd amounted to 33.4 nM, the dissociation rate constant (koff) was found to be 0.00962 s⁻¹ and the kon came out at 288000 M⁻¹ s⁻¹.

B33: B7-H4 antibody 0277 (antibody, human IgG1, kappa, V domains shown)
VH: B17 VH with I48V, G49A, T57A, K58T, G71R, F78L, V96A, S106H
VL: B1 VL with D70E, A93S
As for B33, the concentration for half-maximal inhibition (IC50) in experiment [1] was 19 nM.

B34: B7-H4 antibody 0546 (antibody, human IgG1, kappa, V domains shown)
VH: B1 VH with N52D, S54Q, A57T, T58K, G98E
VL: B1 VL with N92S, A93S
As to B34, the IC50 in experiment [1] amounted to 42.3 nM.

B35: B7-H4 antibody 0056 (antibody, human IgG1, kappa, V domains shown)
VH: EVQLLESGGGLVQPGGSLRLSCAASGFTFSTYAMNWVRQAPGKGLAWVSAISGSGGSTYYADSVKGRFTISRDDSKNTLYLQMNSLRAEDTAVYYCAKVDVVARYYGMDVWGQGTTVTVSS
VL: DIQMTQSPSTLSASVGDRVTITCRASQSISGWLAWYQQKPGKAPKLLIYEASSLESGVPSRFSGSGSGTEFTLTISSLQPDDFATYYCQQYKSYSWTFGQGTKVEIKR
notes: also called 33G4
As for B35, in experiment [3], the affinity, expressed as Kd, was 0.62 nM; the koff is 0.000353 s⁻¹; the kon came out at 574000 M⁻¹ s⁻¹.

B36: B7-H4 antibody 0059 (antibody, human IgG1, kappa, V domains shown)
VH: EVQLLESGGGLVQPGGSLRLSCAASGFTFSSYALSWVRQAPGKGLEWVSTINVGGVDTNYAGSVKGRFTISRDNPKNTLCLQMNSLRAEDTAVYHCAKARITMVRGVIIPLFDYWGQGTLVTVAS
VL: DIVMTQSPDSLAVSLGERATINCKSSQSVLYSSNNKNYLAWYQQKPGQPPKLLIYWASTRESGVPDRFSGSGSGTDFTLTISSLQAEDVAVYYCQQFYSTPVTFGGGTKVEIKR
notes: also called 47A1
For the molecule B36, in experiment [3], the equilibrium dissociation constant (Kd) was 0.68 nM, the koff amounted to 0.000389 s⁻¹ and the kon is 568000 M⁻¹ s⁻¹.
